The Human Domainome abundance scans (Beltran et al. 2025)
± gives the uncertainty stated by the source.

B1: Retinoic acid receptor beta, residues 85 to 161; numbered along this chain, P10826 (parent)
chain: YKPCFVCQDKSSGYHYGVSACEGCKGFFRRSIQKNMIYTCHRDKNCVINKVTRNRCQYCRLQKCFEVGMSKESVRND

Variants of: B1
Test: abundance fitness (aPCA) (normalised: wild type 0, dead -1); higher = more abundant; growth selection in yeast, the domain comes from the species named
Settings: Homo sapiens

| Variant | abundance fitness |
| --- | --- |
| YKPCFVYQDKSSGYHYGVSACEGCKGFFRRSIQKNMIYTCHRDKNCVINKVTRNRCQYCRLQKCFEVGMSKESVRND [C7Y] | -0.609 ± 0.16 |
| YKPCFVEQDKSSGYHYGVSACEGCKGFFRRSIQKNMIYTCHRDKNCVINKVTRNRCQYCRLQKCFEVGMSKESVRND [C7E] | -1.23 ± 0.24 |
| YKPCFVMQDKSSGYHYGVSACEGCKGFFRRSIQKNMIYTCHRDKNCVINKVTRNRCQYCRLQKCFEVGMSKESVRND [C7M] | -0.753 ± 0.14 |
| YKPCFVKQDKSSGYHYGVSACEGCKGFFRRSIQKNMIYTCHRDKNCVINKVTRNRCQYCRLQKCFEVGMSKESVRND [C7K] | -0.879 ± 0.27 |
| YKPCFVGQDKSSGYHYGVSACEGCKGFFRRSIQKNMIYTCHRDKNCVINKVTRNRCQYCRLQKCFEVGMSKESVRND [C7G] | -1.05 ± 0.12 |
| YKPCFVWQDKSSGYHYGVSACEGCKGFFRRSIQKNMIYTCHRDKNCVINKVTRNRCQYCRLQKCFEVGMSKESVRND [C7W] | -0.656 ± 0.11 |
| YKPCFVDQDKSSGYHYGVSACEGCKGFFRRSIQKNMIYTCHRDKNCVINKVTRNRCQYCRLQKCFEVGMSKESVRND [C7D] | -0.724 ± 0.38 |
| YKPCFVIQDKSSGYHYGVSACEGCKGFFRRSIQKNMIYTCHRDKNCVINKVTRNRCQYCRLQKCFEVGMSKESVRND [C7I] | -0.806 ± 0.25 |
| YKPCFVTQDKSSGYHYGVSACEGCKGFFRRSIQKNMIYTCHRDKNCVINKVTRNRCQYCRLQKCFEVGMSKESVRND [C7T] | -0.438 ± 0.13 |
| YKPCFVQQDKSSGYHYGVSACEGCKGFFRRSIQKNMIYTCHRDKNCVINKVTRNRCQYCRLQKCFEVGMSKESVRND [C7Q] | -1 ± 0.33 |
| YKPCFVAQDKSSGYHYGVSACEGCKGFFRRSIQKNMIYTCHRDKNCVINKVTRNRCQYCRLQKCFEVGMSKESVRND [C7A] | -0.991 ± 0.3 |
| YKPCFVVQDKSSGYHYGVSACEGCKGFFRRSIQKNMIYTCHRDKNCVINKVTRNRCQYCRLQKCFEVGMSKESVRND [C7V] | -0.879 ± 0.12 |
| YKPCFVSQDKSSGYHYGVSACEGCKGFFRRSIQKNMIYTCHRDKNCVINKVTRNRCQYCRLQKCFEVGMSKESVRND [C7S] | -0.868 ± 0.17 |
| YKPCFVHQDKSSGYHYGVSACEGCKGFFRRSIQKNMIYTCHRDKNCVINKVTRNRCQYCRLQKCFEVGMSKESVRND [C7H] | -0.932 ± 0.42 |
| YKPCFVFQDKSSGYHYGVSACEGCKGFFRRSIQKNMIYTCHRDKNCVINKVTRNRCQYCRLQKCFEVGMSKESVRND [C7F] | -0.999 ± 0.28 |
| YKPCFVLQDKSSGYHYGVSACEGCKGFFRRSIQKNMIYTCHRDKNCVINKVTRNRCQYCRLQKCFEVGMSKESVRND [C7L] | -0.832 ± 0.11 |
| YKPCFVNQDKSSGYHYGVSACEGCKGFFRRSIQKNMIYTCHRDKNCVINKVTRNRCQYCRLQKCFEVGMSKESVRND [C7N] | -0.615 ± 0.24 |
| YKPCFNCQDKSSGYHYGVSACEGCKGFFRRSIQKNMIYTCHRDKNCVINKVTRNRCQYCRLQKCFEVGMSKESVRND [V6N] | -0.873 ± 0.38 |

| Variant | abundance fitness |
| --- | --- |
| YKPCFACQDKSSGYHYGVSACEGCKGFFRRSIQKNMIYTCHRDKNCVINKVTRNRCQYCRLQKCFEVGMSKESVRND [V6A] | -0.711 ± 0.1 |
| YKPCFHCQDKSSGYHYGVSACEGCKGFFRRSIQKNMIYTCHRDKNCVINKVTRNRCQYCRLQKCFEVGMSKESVRND [V6H] | -0.748 ± 0.37 |
| YKPCFSCQDKSSGYHYGVSACEGCKGFFRRSIQKNMIYTCHRDKNCVINKVTRNRCQYCRLQKCFEVGMSKESVRND [V6S] | -0.907 ± 0.14 |
| YKPCFRCQDKSSGYHYGVSACEGCKGFFRRSIQKNMIYTCHRDKNCVINKVTRNRCQYCRLQKCFEVGMSKESVRND [V6R] | -0.83 ± 0.091 |
| YKPCFGCQDKSSGYHYGVSACEGCKGFFRRSIQKNMIYTCHRDKNCVINKVTRNRCQYCRLQKCFEVGMSKESVRND [V6G] | -0.746 ± 0.076 |
| YKPCFICQDKSSGYHYGVSACEGCKGFFRRSIQKNMIYTCHRDKNCVINKVTRNRCQYCRLQKCFEVGMSKESVRND [V6I] | -0.13 ± 0.064 |
| YKPCFPCQDKSSGYHYGVSACEGCKGFFRRSIQKNMIYTCHRDKNCVINKVTRNRCQYCRLQKCFEVGMSKESVRND [V6P] | -0.849 ± 0.21 |
| YKPCFKCQDKSSGYHYGVSACEGCKGFFRRSIQKNMIYTCHRDKNCVINKVTRNRCQYCRLQKCFEVGMSKESVRND [V6K] | -0.82 ± 0.15 |
| YKPCFLCQDKSSGYHYGVSACEGCKGFFRRSIQKNMIYTCHRDKNCVINKVTRNRCQYCRLQKCFEVGMSKESVRND [V6L] | -0.81 ± 0.12 |
| YKPCFTCQDKSSGYHYGVSACEGCKGFFRRSIQKNMIYTCHRDKNCVINKVTRNRCQYCRLQKCFEVGMSKESVRND [V6T] | -0.822 ± 0.18 |
| YKPCFMCQDKSSGYHYGVSACEGCKGFFRRSIQKNMIYTCHRDKNCVINKVTRNRCQYCRLQKCFEVGMSKESVRND [V6M] | -0.76 ± 0.15 |
| YKPCFFCQDKSSGYHYGVSACEGCKGFFRRSIQKNMIYTCHRDKNCVINKVTRNRCQYCRLQKCFEVGMSKESVRND [V6F] | -0.374 ± 0.15 |
| YKPCFQCQDKSSGYHYGVSACEGCKGFFRRSIQKNMIYTCHRDKNCVINKVTRNRCQYCRLQKCFEVGMSKESVRND [V6Q] | -0.926 ± 0.23 |
| YKPCFCCQDKSSGYHYGVSACEGCKGFFRRSIQKNMIYTCHRDKNCVINKVTRNRCQYCRLQKCFEVGMSKESVRND [V6C] | -0.995 ± 0.27 |
| YKPCFECQDKSSGYHYGVSACEGCKGFFRRSIQKNMIYTCHRDKNCVINKVTRNRCQYCRLQKCFEVGMSKESVRND [V6E] | -1.02 ± 0.23 |
| YKPCFWCQDKSSGYHYGVSACEGCKGFFRRSIQKNMIYTCHRDKNCVINKVTRNRCQYCRLQKCFEVGMSKESVRND [V6W] | -0.795 ± 0.16 |
| YKPCFVCHDKSSGYHYGVSACEGCKGFFRRSIQKNMIYTCHRDKNCVINKVTRNRCQYCRLQKCFEVGMSKESVRND [Q8H] | 0.055 ± 0.1 |
